# Experimental data from paper PMC3871271 (FEBS Open Bio, 2013).
# Like-named read-outs stand apart in the source and are kept apart here.
# Tests used:
# Test in all cases: ITC
# [1] = molecular target: T1, C-terminal domain of Scherffelia dubia centrin, wild type (Scherffelia dubia, UniProt Q06827 93-168)
# T1 sequence (looked up): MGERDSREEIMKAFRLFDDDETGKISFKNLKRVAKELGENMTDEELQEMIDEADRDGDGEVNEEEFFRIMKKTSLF
# [2] = molecular target: T1, C-terminal domain of Scherffelia dubia …; remark: listed apart in the source
# [3] = molecular target: T1, C-terminal domain of Scherffelia dubia …; remark: listed apart in the source
# [4] = molecular target: T1, C-terminal domain of Scherffelia dubia …; remark: listed apart in the source
binder,measurement,setting,value
Ac-NWKLLAKGLLIRERLKR-NH2 [P17-XPC peptide],Ka,[1],3.02e+07 M⁻¹
same,dH,[1],-33.8 kcal/mol
same,dH,[2],-40.6 kcal/mol
same,Ka,[3],5.94e+07 M⁻¹
same,dH,[3],-23.4 kcal/mol
same,Ka,[4],7.32e+07 M⁻¹
same,dH,[4],-23.4 kcal/mol
